Experimental data reported in patent US20230287598A1.

Biological target: Kv1.3 (human (T-cells from human blood donors)) (UniProt P22001)
Assay: cell-based or functional assay

Chain of Kv1.3 (human (T-cells from human blood donors)) (P22001 whole entry): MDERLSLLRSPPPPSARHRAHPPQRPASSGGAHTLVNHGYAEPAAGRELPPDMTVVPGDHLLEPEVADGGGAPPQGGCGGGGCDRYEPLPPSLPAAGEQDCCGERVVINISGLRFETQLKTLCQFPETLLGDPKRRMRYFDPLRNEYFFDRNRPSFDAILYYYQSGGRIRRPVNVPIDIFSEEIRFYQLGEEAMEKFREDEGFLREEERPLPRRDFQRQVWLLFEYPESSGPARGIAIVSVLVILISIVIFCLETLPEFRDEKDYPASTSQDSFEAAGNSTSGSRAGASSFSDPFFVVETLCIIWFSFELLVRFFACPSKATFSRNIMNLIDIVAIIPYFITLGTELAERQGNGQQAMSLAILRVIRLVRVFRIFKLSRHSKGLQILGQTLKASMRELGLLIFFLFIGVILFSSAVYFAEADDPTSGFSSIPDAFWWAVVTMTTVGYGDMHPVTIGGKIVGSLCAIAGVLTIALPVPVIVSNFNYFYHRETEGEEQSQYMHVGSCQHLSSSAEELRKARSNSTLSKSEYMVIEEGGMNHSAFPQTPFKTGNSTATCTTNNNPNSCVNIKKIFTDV

| Substance | TNF-α ELISA (A450), Donor 1, 6 nM IgG | TNF-α ELISA (A450), Donor 1, 17 nM IgG | TNF-α ELISA (A450), Donor 1, 50 nM IgG | TNF-α ELISA (A450), Donor 1, 150 nM IgG | TNF-α ELISA (A450), Donor 2, 6 nM IgG | TNF-α ELISA (A450), Donor 2, 17 nM IgG | TNF-α ELISA (A450), Donor 2, 50 nM IgG | TNF-α ELISA (A450), Donor 2, 150 nM IgG | TNF-α ELISA (A450), Donor 3, 6 nM IgG | TNF-α ELISA (A450), Donor 3, 17 nM IgG | TNF-α ELISA (A450), Donor 3, 50 nM IgG | TNF-α ELISA (A450), Donor 3, 150 nM IgG |
| --- | --- | --- | --- | --- | --- | --- | --- | --- | --- | --- | --- | --- |
| BLV1H12 GLLV 3xG4S OSK1 (K16,D20) (antibody) | 0.641 A450 | 0.698 A450 | 0.556 A450 | 0.253 A450 | 0.096 A450 | 0.094 A450 | 0.075 A450 | 0.027 A450 | 0.159 A450 | 0.144 A450 | 0.102 A450 | 0.029 A450 |
| BLV1H12 GLLV 3xG4S OSK1 (P12,K16,D20) (antibody) | 0.666 A450 | 0.651 A450 | 0.58 A450 | 0.171 A450 | 0.121 A450 | 0.108 A450 | 0.097 A450 | 0.037 A450 | 0.191 A450 | 0.168 A450 | 0.122 A450 | 0.037 A450 |
